In the supplement of paper PMC5998384:

Key:
[1] = test system: HeLa Kyoto; assay: thermal stability score vs G1/S (z-score of summed log2 fold changes over temperatures); higher = more thermally stable than in G1/S
[2] = test system: HeLa Kyoto; assay: solubility in G1/S (NP-40 vs SDS abundance) (log2 ratio); higher = more soluble; conditions: cell cycle stage: G1/S
[3] = test system: HeLa Kyoto; assay: melting temperature (median over replicates), in situ; higher = more thermally stable
[4] = test system: HeLa Kyoto; assay: solubility change mitosis vs G1/S (difference of NP-40 vs SDS log2 ratios) (log2 ratio difference); higher = more soluble in mitosis
[5] = cell cycle stage: early G1 (4.5 h after nocodazole release)
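For melting temperature (median over replicates), in situ in this document: HeLa Kyoto cells synchronized by double thymidine or nocodazole block, proteins quantified by TMT10plex mass spectrometry, three independent biological replicates.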
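For solubility change mitosis vs G1/S (difference of NP-40 vs SDS log2 ratios) in this document: synchronized HeLa Kyoto cells (double thymidine block for G1/S, nocodazole release for mitosis), protein amounts in NP-40 versus SDS lysates quantified by mass spectrometry, three biological replicates.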
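For solubility in G1/S (NP-40 vs SDS abundance) in this document: HeLa Kyoto cells arrested at G1/S by double thymidine block, proteins quantified by TMT10plex mass spectrometry in mild NP-40 versus SDS extracts, three biological replicates.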
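For thermal stability score vs G1/S (z-score of summed log2 fold changes over temperatures) in this document: synchronized HeLa Kyoto cells, proteins quantified by TMT10plex mass spectrometry, three biological replicates, mitosis taken 0.5 h after nocodazole release, G1/S directly after double thymidine block.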

Chain of ZNF207 (chain, as listed by the source): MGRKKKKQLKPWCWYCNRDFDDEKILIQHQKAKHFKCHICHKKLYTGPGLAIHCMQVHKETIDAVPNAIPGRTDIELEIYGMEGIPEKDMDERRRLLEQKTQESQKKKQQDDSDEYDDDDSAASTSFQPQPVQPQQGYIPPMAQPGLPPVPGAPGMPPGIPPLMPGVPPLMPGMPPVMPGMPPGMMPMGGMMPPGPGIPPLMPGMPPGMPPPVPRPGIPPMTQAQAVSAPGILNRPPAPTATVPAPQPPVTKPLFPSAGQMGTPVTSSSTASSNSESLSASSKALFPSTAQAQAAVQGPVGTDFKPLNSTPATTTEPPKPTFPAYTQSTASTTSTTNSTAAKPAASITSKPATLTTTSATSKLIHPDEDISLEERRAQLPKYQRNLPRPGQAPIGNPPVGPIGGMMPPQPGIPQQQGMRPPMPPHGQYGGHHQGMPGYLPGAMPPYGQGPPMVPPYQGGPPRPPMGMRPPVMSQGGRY

## USP34
[1]; [5]
  thermal stability score: 0.493
[1]; cell cycle stage: mitosis
  thermal stability score: 1.73
[2]
  solubility in G1/S (log2): -0.314
[3]; cell cycle stage: G1/S
  melting temperature: 49.5 °C
[3]; cell cycle stage: mitosis
  melting temperature: 50.2 °C
[4]
  solubility change mitosis (log2): -0.0816

## UTRN
[1]; [5]
  thermal stability score: 0.795
[1]; cell cycle stage: mitosis
  thermal stability score: 1.84
[2]
  solubility in G1/S (log2): 0.0106
[3]; cell cycle stage: G1/S
  melting temperature: 49 °C
[3]; cell cycle stage: mitosis
  melting temperature: 48.5 °C
[4]
  solubility change mitosis (log2): -0.109

## WBSCR16
[1]; [5]
  thermal stability score: 0.481
[1]; cell cycle stage: mitosis
  thermal stability score: -0.564
[2]
  solubility in G1/S (log2): -0.259
[3]; cell cycle stage: G1/S
  melting temperature: 53.6 °C
[3]; cell cycle stage: mitosis
  melting temperature: 52.7 °C
[4]
  solubility change mitosis (log2): -0.168

## WDR48
[1]; [5]
  thermal stability score: 3.81
[1]; cell cycle stage: mitosis
  thermal stability score: 2.36
[2]
  solubility in G1/S (log2): -0.162
[3]; cell cycle stage: G1/S
  melting temperature: 52.5 °C
[3]; cell cycle stage: mitosis
  melting temperature: 53.9 °C
[4]
  solubility change mitosis (log2): -0.036

## WIZ
[1]; [5]
  thermal stability score: 0.511
[1]; cell cycle stage: mitosis
  thermal stability score: -0.305
[2]
  solubility in G1/S (log2): -0.0213
[3]; cell cycle stage: G1/S
  melting temperature: 50.4 °C
[3]; cell cycle stage: mitosis
  melting temperature: 50.8 °C
[4]
  solubility change mitosis (log2): 0.321

## XRN1
[1]; [5]
  thermal stability score: 0.741
[1]; cell cycle stage: mitosis
  thermal stability score: 0.939
[2]
  solubility in G1/S (log2): -0.345
[3]; cell cycle stage: G1/S
  melting temperature: 49 °C
[3]; cell cycle stage: mitosis
  melting temperature: 48.5 °C
[4]
  solubility change mitosis (log2): -0.0622

## ZC3H13
[1]; [5]
  thermal stability score: 0.124
[1]; cell cycle stage: mitosis
  thermal stability score: 2.39
[2]
  solubility in G1/S (log2): -0.595
[3]; cell cycle stage: G1/S
  melting temperature: 49.5 °C
[3]; cell cycle stage: mitosis
  melting temperature: 50.7 °C
[4]
  solubility change mitosis (log2): 0.414

## ZCCHC11
[1]; [5]
  thermal stability score: 0.72
[1]; cell cycle stage: mitosis
  thermal stability score: 1.31
[2]
  solubility in G1/S (log2): -0.0583
[3]; cell cycle stage: G1/S
  melting temperature: 50.6 °C
[3]; cell cycle stage: mitosis
  melting temperature: 49.4 °C
[4]
  solubility change mitosis (log2): -0.11

## ZNF207
[1]; [5]
  thermal stability score: -5.35
[1]; cell cycle stage: mitosis
  thermal stability score: -6.05
[2]
  solubility in G1/S (log2): 0.0156
[3]; cell cycle stage: G1/S
  melting temperature: 55.8 °C
[3]; cell cycle stage: mitosis
  melting temperature: 55.4 °C
[4]
  solubility change mitosis (log2): 0.36

## ZNF638
[1]; [5]
  thermal stability score: 1.39
[1]; cell cycle stage: mitosis
  thermal stability score: 4.74
[2]
  solubility in G1/S (log2): -0.709
[3]; cell cycle stage: G1/S
  melting temperature: 48.1 °C
[3]; cell cycle stage: mitosis
  melting temperature: 50.2 °C
[4]
  solubility change mitosis (log2): 0.363

## ZSWIM8
[1]; [5]
  thermal stability score: 0.66
[1]; cell cycle stage: mitosis
  thermal stability score: 1.55
[2]
  solubility in G1/S (log2): -0.162
[3]; cell cycle stage: G1/S
  melting temperature: 49.2 °C
[3]; cell cycle stage: mitosis
  melting temperature: 49 °C
[4]
  solubility change mitosis (log2): -0.0253
